From patent US20250346644A1 (LATTICON SUZHOU BIOPHARMACEUTICALS, published 2025)
Where two headings read alike, the source gives them in different places.

Columns and labels:
hIL2Rα (hCD25) = target: T1, hIL2Rα (hCD25) (human, UniProt P01589 22-213, limits assumed); experiment: ELISA (method of section 4.2.1): sample captured on coated goat anti-human IgG, hCD25 titrated; the x axis is the CD25 concentration
T1 construct: bought recombinant protein; also called hCD25 (Acro); biotin-CD25 (Acro)
T1 sequence (looked up): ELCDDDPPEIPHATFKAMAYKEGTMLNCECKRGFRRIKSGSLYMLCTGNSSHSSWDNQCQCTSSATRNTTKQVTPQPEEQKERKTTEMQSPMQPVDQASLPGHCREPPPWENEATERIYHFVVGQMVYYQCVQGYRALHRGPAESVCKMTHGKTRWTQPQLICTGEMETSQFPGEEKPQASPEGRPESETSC

mIL2-his [1] = target: T2, mIL2-his (mouse, UniProt P04351 21-169); experiment: BLI ForteBio, Ab on Protein A sensor
T2 construct: also called wild-type mouse IL-2 (with a his-tag); not shown: his-tag
T2 sequence (looked up): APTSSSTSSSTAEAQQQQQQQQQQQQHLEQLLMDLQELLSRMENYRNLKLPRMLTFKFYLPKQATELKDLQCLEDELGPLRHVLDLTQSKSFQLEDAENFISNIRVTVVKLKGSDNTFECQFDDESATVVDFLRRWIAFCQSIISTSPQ

hIL2-TM-his [2] = target: T3, hIL2-TM-his (human, UniProt P60568 21-153); experiment: BLI ForteBio, Ab on Protein A sensor
T3 construct: also called hIL-2 mutein containing three point mutations K64G, N90R and M104E (with a his-tag); not shown: his-tag
T3 chain: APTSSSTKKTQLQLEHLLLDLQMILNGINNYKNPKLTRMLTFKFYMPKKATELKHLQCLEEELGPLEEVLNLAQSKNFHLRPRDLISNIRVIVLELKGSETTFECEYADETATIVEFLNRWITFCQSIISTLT

mIL2-his [3] = target: T2, mIL2-his; experiment: BLI ForteBio, Ab on Protein A sensor; remark: listed apart in the source
Protocol: (§1) After each cycle of association and dissociation steps, the sensor was regenerated by 10 mM glycine buffer (pH 1.5) and then stated with the next cycle of detection. After the detection, the association rate constant and dissociation rate constant between the antibody and antigen were fitted and extrapolated using the analytical software, and the value of affinity constant (KD) was calculated.

hIL2-DM-his = target: T4, hIL2-DM-his (human, UniProt P60568 21-153); experiment: BLI ForteBio, Ab on Protein A sensor
T4 construct: expressed in ExpiCHO-S cells, nickel-column purified; also called hIL-2 mutein containing two point mutations K64G and N90R (with a his-tag); not shown: his-tag

hIL2-TM-his [4] = target: T3, hIL2-TM-his; experiment: BLI ForteBio, Ab on Protein A sensor
Protocol: as §1

mIL2-his [5] = target: T2, mIL2-his; experiment: ELISA, antibody captured by anti-human IgG, mIL2-his titrated
Protocol: ELISA was performed as follows: a goat anti-human IgG (Jackson Immunoresearch) was diluted to 1 μg/mL in 1×PBS and added to an ELISA plate at 100 μL/well, and then incubated at 4° C. overnight. The plate was washed with PBS and then blocked at room temperature for 1 hour after adding the blocking solution (PBST containing 1% BSA) to each well. […] The plate was washed with PBST; the HRP-labeled anti-6×His-tag secondary antibody (Proteintech) diluted at a ratio of 1:10,000 in blocking solution was then added to each well and incubated at room temperature for 1 hour. The plate was washed with PBST; the TMB chromogenic solution (Thermo) was added to each well and incubated in dark for 3-10 minutes at room temperature. The stop solution (2 M HCl) was added to each well, and OD values at a wavelength of 450-570 nm were read using a multimode microplate reader (Varioskan, Thermo).

mIL2-his [6] = target: T2, mIL2-his; experiment: BLI ForteBio, Ab on Protein A sensor; remark: listed apart in the source
Protocol: as §1

B1: H6K3(H)-Cy10 (other)
heavy: SSSTKKTQLQLEHLLLDLQMILNGINNYKNPKLTRMLTCKFYMPKKATELKHLQCLEEELGPLEEVLNLAQSKNFHLRPRDLISNIRVIVLELKGSETTFMCEYADETATIVEFLNRWITFLQSIISTLTGGGGSGGGGSGGGGSGGGGSQVQLVQSGAEVKKPGATVKISCKVSGDTITAYYMHWVRQAPGQGLEWIGRIDPEDDSTKYAENFKGRVTITADTSTDTAYMELSSLRSEDTAVYYCTTVTCYYSRELRWFAYWGQGTLVTVSS
VL: DIVLTQSPATLSLSPGERATLSCQASQDIGNYLSWYQQKPGQAPRLLIYSATSLASGIPARFSGSRSGTDFTLTISSLEPEDFAVYYCLQHYSTPYTFGQGTKLEIK
notes: fusion with the parental antibody hS4B6-H6K3(H), disulfide IL:42-H:97; also called H6K3-Cy10
binding result (hIL2Rα (hCD25)): no binding (tested: 10 µg/mL)

B2: hS4B6-H6K3(H) (antibody, V domains shown)
VH: QVQLVQSGAEVKKPGATVKISCKVSGDTITAYYMHWVRQAPGQGLEWIGRIDPEDDSTKYAENFKGRVTITADTSTDTAYMELSSLRSEDTAVYYCTTVTFYYSRELRWFAYWGQGTLVTVSS
VL: DIVLTQSPATLSLSPGERATLSCQASQDIGNYLSWYQQKPGQAPRLLIYSATSLASGIPARFSGSRSGTDFTLTISSLEPEDFAVYYCLQHYSTPYTFGQGTKLEIK
notes: H6K3 with L34M, N65G, N76D (heavy) and D56S, Y71F (light)
Kd (mIL2-his [1]): 0.254 nM
koff (mIL2-his [1]): 0.000236 s⁻¹
kon (mIL2-his [1]): 928000 M⁻¹ s⁻¹
Kd (hIL2-TM-his [2]): 9.88 nM
koff (hIL2-TM-his [2]): 0.0027 s⁻¹
kon (hIL2-TM-his [2]): 274000 M⁻¹ s⁻¹

B3: S4B6 chimeric antibody (antibody, human IgG1, V domains shown)
VH: EVQLQESGAELVRPGTSVKLSCKVSGDTITAYYLHFVRQRPGQGLEWIGRIDPEDDSTKYAENFKNKATFTADASSNTAYLRLSSLTSEDTATYFCTTVTFYYSRELRWFAYWGQGTLVTVSS
VL: DIQVTQSPASLSASLEEIVTITCQASQDIGNYLSWYQQKLGKSPQLLIHSATSLADGVPSRFSGSRSGTQYSLKINRLQVEDTGIYYCLQHYSTPYTFGAGTKLELK
notes: also called chS4B6
Kd (mIL2-his [3]): 0.996 nM
koff (mIL2-his [3]): 0.000182 s⁻¹
kon (mIL2-his [3]): 183000 M⁻¹ s⁻¹
Kd (hIL2-DM-his): 39.4 nM
koff (hIL2-DM-his): 0.0106 s⁻¹
kon (hIL2-DM-his): 269000 M⁻¹ s⁻¹
Kd (hIL2-TM-his [4]): 22.6 nM
koff (hIL2-TM-his [4]): 0.00476 s⁻¹
kon (hIL2-TM-his [4]): 210000 M⁻¹ s⁻¹
EC50 (mIL2-his [5]): 0.0139 µg/mL
Kd (mIL2-his [6]): 0.996 nM
koff (mIL2-his [6]): 0.000182 s⁻¹
kon (mIL2-his [6]): 183000 M⁻¹ s⁻¹
